Here are results for three substances from patent US9376706B2, “Protease detection” (Mologic Limited, priority 2007, dated 2016).

Common to all, as to assay type: biochemical
For experiment [1], the target named is T1, Neutrophil Elastase (Homo sapiens, UniProt P08246).
T1 sequence (P08246 30-267): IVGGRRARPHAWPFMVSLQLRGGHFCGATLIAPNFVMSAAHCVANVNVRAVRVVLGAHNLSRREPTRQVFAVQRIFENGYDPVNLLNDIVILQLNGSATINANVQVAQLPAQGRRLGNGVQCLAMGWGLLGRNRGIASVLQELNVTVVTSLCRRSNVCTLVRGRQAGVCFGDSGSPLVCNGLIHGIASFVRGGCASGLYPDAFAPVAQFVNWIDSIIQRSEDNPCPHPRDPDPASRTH
The experiment is described as follows: Plate assay of peptides as elastase substrates with DMAC visualisation. The note with it: for result for elastase activity (well colour): 37° C., 30 minutes, pH 7.4; for suitability as elastase substrate: conclusion of Examples 3A and 3B. On the procedure: Two peptides, AAPV-[pABA]-GGC (SEQ ID NO: 3) and AAPV-[ANA]-GGC (SEQ ID NO: 4), were synthesised, wherein pABA is para-amino benzoic acid and ANA is 2-amino naphthoic acid. Both peptides were tested for their suitability as a substrate for the Neutrophil Elastase enzyme. The electrospray mass spectrums of AAPV-[pABA]-GGC (SEQ ID NO: 3) and AAPV-[ANA]-GGC (SEQ ID NO: 4) are shown in FIGS. 10A and 10B respectively.
Varying concentrations of Elastase (5 μl of 18, 9, 6 and 3 units/ml dilutions) were added to 0.5 mg/ml peptide (5 μl) in separate plate wells. The mixtures were diluted with 20 μl of Buffer (50 mM phosphate, 5 mM EDTA; pH 7.4) and incubated at 37° C. for 30 minutes. 15 μl of working DMAC solution (0.3 mg/ml DMAC, 50 mM HCl) was added to each plate well and mixed thoroughly to visualize.

The target in experiment [2] is T1, Neutrophil Elastase. The experiment is described as follows: Vertical flow column assay, peptide conjugated to frits, elastase, DMAC development. Conditions: column with elastase, flow contact time approx. 30 seconds. On the procedure:
Another assay format was used to test for the activity of the enzyme Neutrophil Elastase in the presence of the two peptides, AAPV-[pABA]-GGC (SEQ ID NO: 3) and AAPV-[ANA]-GGC (SEQ ID NO: 4). The C-terminal cysteine group of the peptides was used as a means of conjugation to a solid surface. Sintered polyethylene frits functionalised with iodoacetyl groups were rinsed in 50 mM sodium phosphate, 5 mM EDTA, pH 7.4 for 10 minutes. The frits were then transferred to a solution of 0.5 mg/ml peptide (in PBS) for sensitisation for 30 minutes. The frits were then rinsed once more in phosphate EDTA buffer for 10 minutes. The frits were loaded into empty columns and 200 μl of elastase was added with an approximate flow contact time of 30 seconds. To develop the assay, 100 μl of working DMAC solution (0.3 mg/ml DMAC, 50 mM HCl) was passed through the column.

A further experiment concerns the target T2, papain (Carica papaya, UniProt P00784).
T2 sequence (P00784 134-345): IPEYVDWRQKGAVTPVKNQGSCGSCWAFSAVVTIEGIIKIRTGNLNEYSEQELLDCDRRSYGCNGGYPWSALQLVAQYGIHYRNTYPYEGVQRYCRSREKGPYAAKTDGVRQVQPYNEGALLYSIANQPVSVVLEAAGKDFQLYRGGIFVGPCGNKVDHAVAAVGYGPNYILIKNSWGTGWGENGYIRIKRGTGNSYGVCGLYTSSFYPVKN
Put plainly: Booklet assay for detection of papain with DMAC visualisation. The text has this: The polypeptides of the present invention are, in some embodiments, incorporated into a product for detecting a protease enzyme in a sample which takes the form of a booklet. A suitable such booklet is disclosed in PCT application No. PCT/GB2007/000643 which is incorporated herein by reference. Referring to FIG. 3 a booklet 1 in accordance with this embodiment will now be described. The booklet comprises first and second sheets 2, 3 of planar substrate such as cardboard, connected by a hinge 4. In the centre of the first sheet there is provided a thin reaction film 25 on top of an absorbent pad 5. The reaction film 25 is impregnated with the chromogenic polypeptide and can be made from PVA. On the centre of the second sheet 3 there is provided an aperture 6 which is aligned with the reaction film 25 and the absorbent pad 5. The aperture 6 is covered by a visualisation film 7, such that the visualisation film 7 lies between the aperture 6 and the reaction film 25 when the first and second sheets 2, 3 are pressed against each other. The visualisation film 7 is impregnated with DMAC and HCl. Optionally, the reaction film 25 and the absorbent pad 5 are covered with a removable film (not shown) prior to use so that the reaction film 25 and the absorbent pad 5 are kept sealed from the environment. […]

Square brackets hold non-standard residues; d marks the D form. Ends that are not written are not given here. ANA = 2-amino naphthoic acid; 4Abz = Nc1ccc(C(=O)O)cc1

Consider “AAPV-[ANA]-GGC (AAPV[ANA]GGC) [chromogenic peptide, ANA is 2-amino naphthoic acid]”, for which the “result for elastase activity (well colour)” value with Neutrophil Elastase [1] (all wells with elastase) is reported as “elastase activity was not detected”. Besides, the “suitability as elastase substrate” value with Neutrophil Elastase [1] was “poor elastase substrate”. Besides, in the experiment with Neutrophil Elastase [2], the “result of vertical flow assay (column colour)” value is on record as “negative results”.
Consider “AAPV-[pABA]-GGC (AAPV[4Abz]GGC) [chromogenic peptide, pABA is para-amino benzoic acid]”, for which, in the experiment with Neutrophil Elastase [1], the “suitability as elastase substrate” value was “significantly more suitable as a substrate for elastase”. Moreover, the “result for elastase activity (well colour)” value with Neutrophil Elastase [1] (final elastase 0.5 units/ml) was “weak positive result”; with Neutrophil Elastase [1] (final elastase 3, 1.5 or 1 units/ml), “positive result”. Besides, in the experiment with Neutrophil Elastase [2], the “result of vertical flow assay (column colour)” value is on record as “positive result”.
Take “Val-Arg-[pABA]-Gly (VR[4Abz]G-OH; N-terminus assumed; SMILES CC(C)[C@H](N)C(=O)N[C@@H](CCCNC(=N)N)C(=O)Nc1ccc(C(=O)NCC(=O)O)cc1) [chromogenic polypeptide; pABA is para-amino benzoic acid]”: the “colour change of DMAC in booklet assay” value with papain (papain sample, 5 min on first sheet, read ten minutes after folding onto DMAC sheet) is “changed from yellow to red”. Further, the “rate of colour change compared with BANA” value with papain (papain, identical conditions, FIG. 7C) is “faster detectable colour change than BANA”.
